From US20220324969A1 (MYTHIC THERAPEUTICS, published 2022) come the findings set out here.

In test [1] the target is T1, CD33 (Sino Biological, Cat #12238-H08H) (UniProt P20138 18-259). Briefly: BLI, IgG captured on anti-human Fc sensor, 50 nM CD33, pH 7.4 vs pH 5.0. The source says:
Multiple CD33-binding monoclonal antibodies have been described in the literature and can be used as a template for engineering pH-dependent binding (Hamann P R et al (2002) “Gemtuzumab ozogamicin, a potent and selective anti-CD33 antibody-calicheamicin conjugate for treatment of acute myeloid leukemia.” Bioconjug Chem 13(1):47-58). Gemtuzumab (Heavy chain SEQ ID NO: 1, Light chain SEQ ID NO: 2) was selected as a CD33-binding monoclonal antibody for pH engineering via histidine scanning. Briefly, CDRs in the heavy chain were identified using the methods described by Kabat et al (Kabat et al. (1992) Sequences of Proteins of Immunological Interest, DIANE publishing) and IMGT (Lefranc M P (1999) “The IMGT unique numbering for Immunoglobulins, T cell receptors and Ig-like domains” The Immunologist 7, 132-136), and for each CDR, residues falling under either or both Kabat and IMGT CDR definitions were called as CDR residues. To generate pH-dependent sequence variants, individual amino acid residues within the heavy chain CDRs were systematically substituted with a histidine, one at a time (MYT0482-MYT0517). In cases where the starting CDR residue was a histidine, it was mutated to an alanine. Antibody variants with only one histidine or alanine mutation in a heavy chain CDR were generated by co-transfection of Expi293 cells with a) one heavy chain sequence variant, and b) the corresponding starting ABPC light chain using methods known to the art. After allowing for four days of protein expression, cell culture supernatants were collected, quantified by SDS-PAGE analysis, (FIG. 1), and the pH dependence of the variant was evaluated using biolayer interferometry (BLI) on an Octet RED 384 instrument. Briefly, cell culture supernatants were normalized to an antibody expression level of 25 μg/mL, and captured on an anti-human Fc sensor (Forte Bio). A baseline was established using 1×PBST (50 mM Potassium Phosphate Buffer+150 mM NaCl+0.05% Tween 20) pH 7.4, and the sensor was associated with 50 nM of CD33 (Sino Biological, Cat #12238) in 1×PBST pH 7.4 for 120 sec to generate an association curve. In the dissociation phase, the antibody-antigen complex on the sensor was exposed to 1×PBST pH 7.4 for 300-600 sec. Baseline, association, and dissociation were repeated using 1×MES (100 mM MES Buffer+150 mM NaCl+0.05% Tween 20) pH 5.0 throughout in a separate condition.
(In BLI a coated tip is dipped into the sample, and binding shifts an interference pattern.)

The target in test [2] is T1, CD33 (Sino Biological, Cat #12238-H08H). Put plainly: BLI, IgG captured on anti-human Fc sensor, 50 nM CD33, pH 7.4 vs pH 5.4.

Where a chain is given by its changes, count along the chain named. Names and notes keep the numbering of the source.

T1 sequence (P20138 18-259 limits assumed): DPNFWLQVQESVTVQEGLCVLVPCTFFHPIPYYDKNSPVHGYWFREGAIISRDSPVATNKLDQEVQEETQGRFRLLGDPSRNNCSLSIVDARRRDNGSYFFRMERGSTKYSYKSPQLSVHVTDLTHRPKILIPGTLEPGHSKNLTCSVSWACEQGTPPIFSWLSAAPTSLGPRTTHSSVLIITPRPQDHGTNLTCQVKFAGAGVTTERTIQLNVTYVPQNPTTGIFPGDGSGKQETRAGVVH

B1: MYT0482 (antibody, V domains shown)
VH: EVQLVQSGAEVKKPGSSVKVSCKASHYTITDSNIHWVRQAPGQSLEWIGYIYPYNGGTDYNQKFKNRATLTVDNPTNTAYMELSSLRSEDTDFYYCVNGNPWLAYWGQGTLVTVSS
VL: DIQLTQSPSTLSASVGDRVTITCRASESLDNYGIRFLTWFQQKPGKAPKLLMYAASNQGSGVPSRFSGSGSGTEFTLTISSLQPDDFATYYCQQTKEVPWSFGQGTKVEVK
notes: IgG; gemtuzumab VH variant #1 (G26H)
For B1, the binding result in test [1] is on record as “binds”.

B2: MYT1361 (antibody, V domains shown)
VH: QVQLVQSGAEVKKPGASVKVSCKASGYTFTNYDINWVRQAPGQGLEWIGWIYPGDGSTKYNEKFKHKATLTADTSTSTAYMELRSLRSDDTAVYYCASGYEDAMDYWGQGTTVTVSS
VL: DIQMTQSPSSLSASVGDRVTINCKASQDINSYLSWFQQKPGKAPKTLIYRANRLVDGVPSRFSGSGSGQDYTLTISSLQPEDFATYYCLQYDEFPLTFGGGTKVEIK
notes: IgG; vadastuximab VH variant #27 (A66H)
For the molecule B2, the binding result in test [2] is recorded as “binds”.

B3: MYT2654 (antibody, V domains shown)
VH: B2 VH with H66A
VL: B2 VL with A25H
notes: IgG; vadastuximab VL variant #2 (A25H)
For B3, the binding result in test [2] is listed as “binds”.

B4: MYT2666 (antibody, V domains shown)
VH: B2 VH with H66A
VL: B2 VL with N52H
notes: IgG; vadastuximab VL variant #14 (N52H)
In the case of B4, in test [2], the binding result was “binds”.

B5: MYT1365 (antibody, V domains shown)
VH: B2 VH with H66A, Y100H
VL: B2 VL
notes: IgG; vadastuximab VH variant #31 (Y100H)
For the molecule B5, the binding result in test [2] is on record as “binds”.

B6: MYT2655 (antibody, V domains shown)
VH: B2 VH with H66A
VL: B2 VL with S26H
notes: IgG; vadastuximab VL variant #3 (S26H)
B6: the binding result in test [2] was “binds”.

B7: MYT2657 (antibody, V domains shown)
VH: B2 VH with H66A
VL: B2 VL with D28H
notes: IgG; vadastuximab VL variant #5 (D28H)
Consider B7, for which the binding result in test [2] is reported as “binds”.

B8: MYT2677 (antibody, V domains shown)
VH: B2 VH with H66A
VL: B2 VL with P95H
notes: IgG; vadastuximab VL variant #25 (P95H)
Consider B8, for which the binding result in test [2] is on record as “binds”.

B9: MYT2674 (antibody, V domains shown)
VH: B2 VH with H66A
VL: B2 VL with D92H
notes: IgG; vadastuximab VL variant #22 (D92H)
In the case of B9, in test [2], the binding result was “binds”.

B10: MYT2656 (antibody, V domains shown)
VH: B2 VH with H66A
VL: B2 VL with Q27H
notes: IgG; vadastuximab VL variant #4 (Q27H)
Take B10: the binding result in test [2] was “binds”.

B11: MYT2670 (antibody, V domains shown)
VH: B2 VH with H66A
VL: B2 VL with D56H
notes: IgG; vadastuximab VL variant #18 (D56H)
B11: in test [2], the binding result was “binds”.

B12: MYT1371 (antibody, V domains shown)
VH: B2 VH with H66A, Y106H
VL: B2 VL
notes: IgG; vadastuximab VH variant #37 (Y106H)
For the molecule B12, the binding result in test [2] is recorded as “binds”.

B13: MYT2675 (antibody, V domains shown)
VH: B2 VH with H66A
VL: B2 VL with E93H
notes: IgG; vadastuximab VL variant #23 (E93H)
Turning to B13, the binding result in test [2] is reported as “binds”.

B14: MYT2679 (antibody, V domains shown)
VH: B2 VH with H66A
VL: B2 VL with T97H
notes: IgG; vadastuximab VL variant #27 (T97H)
Turning to B14, the binding result in test [2] is “binds”.

B15: MYT2665 (antibody, V domains shown)
VH: B2 VH with H66A
VL: B2 VL with A51H
notes: IgG; vadastuximab VL variant #13 (A51H)
For the molecule B15, in test [2], the binding result is recorded as “binds”.

B16: MYT1370 (antibody, V domains shown)
VH: B2 VH with H66A, D105H
VL: B2 VL
notes: IgG; vadastuximab VH variant #36 (D105H)
For the molecule B16, the binding result in test [2] was “binds”.

B17: MYT2652 (antibody, V domains shown)
VH: B2 VH with F29H, T30H, H66A, D105H
VL: B2 VL
notes: IgG; vadastuximab VH combination #4 (F29H+T30H+D105H)
As to B17, the binding result in test [2] is on record as “binds”.

B18: MYT2653 (antibody, V domains shown)
VH: B2 VH with H66A
VL: B2 VL with K24H
notes: IgG; vadastuximab VL variant #1 (K24H)
As for B18, the binding result in test [2] is “binds”.

B19: MYT2662 (antibody, V domains shown)
VH: B2 VH with H66A
VL: B2 VL with L33H
notes: IgG; vadastuximab VL variant #10 (L33H)
Take B19: the binding result in test [2] is reported as “binds”.

B20: MYT2660 (antibody, V domains shown)
VH: B2 VH with H66A
VL: B2 VL with S31H
notes: IgG; vadastuximab VL variant #8 (S31H)
With B20, the binding result in test [2] is “binds”.

B21: MYT2667 (antibody, V domains shown)
VH: B2 VH with H66A
VL: B2 VL with R53H
notes: IgG; vadastuximab VL variant #15 (R53H)
For B21, in test [2], the binding result is recorded as “binds”.

B22: MYT2668 (antibody, V domains shown)
VH: B2 VH with H66A
VL: B2 VL with L54H
notes: IgG; vadastuximab VL variant #16 (L54H)
Turning to B22, the binding result in test [2] is “binds”.

B23: MYT2671 (antibody, V domains shown)
VH: B2 VH with H66A
VL: B2 VL with L89H
notes: IgG; vadastuximab VL variant #19 (L89H)
Consider B23, for which the binding result in test [2] is “binds”.

B24: MYT2669 (antibody, V domains shown)
VH: B2 VH with H66A
VL: B2 VL with V55H
notes: IgG; vadastuximab VL variant #17 (V55H)
As for B24, the binding result in test [2] is “binds”.

B25: MYT2651 (antibody, V domains shown)
VH: B2 VH with T30H, H66A, D105H
VL: B2 VL
notes: IgG; vadastuximab VH combination #3 (T30H+D105H)
Take B25: the binding result in test [2] is “binds”.

B26: MYT1363 (antibody, V domains shown)
VH: B2 VH with H66A, S98H
VL: B2 VL
notes: IgG; vadastuximab VH variant #29 (S98H)
On to B26, for which the binding result in test [2] was “binds”.

B27: MYT2676 (antibody, V domains shown)
VH: B2 VH with H66A
VL: B2 VL with F94H
notes: IgG; vadastuximab VL variant #24 (F94H)
For B27, the binding result in test [2] is listed as “binds”.

B28: MYT2659 (antibody, V domains shown)
VH: B2 VH with H66A
VL: B2 VL with N30H
notes: IgG; vadastuximab VL variant #7 (N30H)
Turning to B28, in test [2], the binding result is “binds”.

B29: MYT2649 (antibody, V domains shown)
VH: B2 VH with F29H, T30H, H66A
VL: B2 VL
notes: IgG; vadastuximab VH combination #1 (F29H+T30H)
With B29, the binding result in test [2] is on record as “binds”.

B30: MYT2658 (antibody, V domains shown)
VH: B2 VH with H66A
VL: B2 VL with I29H
notes: IgG; vadastuximab VL variant #6 (I29H)
In the case of B30, in test [2], the binding result is “binds”.

B31: MYT2672 (antibody, V domains shown)
VH: B2 VH with H66A
VL: B2 VL with Q90H
notes: IgG; vadastuximab VL variant #20 (Q90H)
Take B31: in test [2], the binding result was “binds”.

B32: MYT2650 (antibody, V domains shown)
VH: B2 VH with F29H, H66A, D105H
VL: B2 VL
notes: IgG; vadastuximab VH combination #2 (F29H+D105H)
With B32, the binding result in test [2] is on record as “binds”.

B33: MYT2664 (antibody, V domains shown)
VH: B2 VH with H66A
VL: B2 VL with R50H
notes: IgG; vadastuximab VL variant #12 (R50H)
Consider B33, for which, in test [2], the binding result is on record as “binds”.

B34: MYT1366 (antibody, V domains shown)
VH: B2 VH with H66A, E101H
VL: B2 VL
notes: IgG; vadastuximab VH variant #32 (E101H)
With B34, in test [2], the binding result is “binds”.
